From patent US20160272707A1 (COMPUGEN, published 2016)
Like-named read-outs stand apart in the source and are kept apart here.

How the values were obtained:
[1] = target: T1, mouse VSTM5 (SEQ ID NO:11) expressed on HEK-293T cells (mouse, UniProt Q9D806 28-199); assay: FACS titration on 293-muVSTM5 cells, panel 'Ab binding vs. mouse VSTM5'
T1 construct: also called mouse VSTM5 untagged
T1 sequence: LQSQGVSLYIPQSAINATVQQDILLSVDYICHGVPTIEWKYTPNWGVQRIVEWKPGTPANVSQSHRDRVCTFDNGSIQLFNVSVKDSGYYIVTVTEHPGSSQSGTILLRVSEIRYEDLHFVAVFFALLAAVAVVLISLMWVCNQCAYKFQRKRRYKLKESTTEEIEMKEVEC

[2] = target: T2, human VSTM5-EGFP (SEQ ID NO:133) expressed on HEK-293 cells (human); assay: FACS, IgG1 at 22 nM on 293-huVSTM5 (VSTM5-EGFP) cells; grade from ratio to 293-MT control cells (400-850)
T2 construct: Full-length human VSTM5 fused at its C-terminus to EGFP; also called VSTM5_GFP
Protocol: Empty vector control cells and human VSTM5 EGFP suspension 293 cells were pelleted and stained in 50 μl of the indicated concentrations of anti-VSTM5 antibodies or isotype controls in FACS buffer at 4° C. for 60 mins. Cells were washed once in FACS buffer, re-suspended in 50 μl of 1:250 dilution of biotinylated anti-human IgG (Jackson cat#109-065-097) for 30 mins at 4° C. Cells were washed in FACS buffer, re-suspended in 50 μl of 1:100 dilution of SA-PE (Jackson cat#016-110-084) for 30 mins. Cells were washed twice and re-suspended in a final volume of 100 μl of FACS buffer. Samples were read on the Intellicyt HTFC. Data was analyzed by FCS Express (DeNovo, Calif., USA), exported to Excel (Microsoft, WA, USA) and plotted in GraphPad Prism® (GraphPad Software, Inc., CA, USA).

[3] = target: T2, human VSTM5-EGFP (SEQ ID NO:133) …; assay: FACS titration of the human IgG1 on 293-huVSTM5 cells, 293-MT control cells as open squares; y axis MFI (anti-Human A647)
[4] = target: T3, VSTM5 monomer (UniProt A8MXK1 29-147, limits assumed); assay: SPR, VSTM5 monomer binding to the IgG (equilibrium binding constant)
T3 construct: also called monomeric VSTM5 antigen; VSTM5 antigen
T3 sequence (looked up): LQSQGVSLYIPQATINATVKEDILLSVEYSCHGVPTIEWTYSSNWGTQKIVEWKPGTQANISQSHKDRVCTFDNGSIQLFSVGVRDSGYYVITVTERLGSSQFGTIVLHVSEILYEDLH

[5] = target: T2, human VSTM5-EGFP (SEQ ID NO:133) …; assay: FACS titration of the human IgG1 on 293-huVSTM5 cells, 293-MT control cells as open squares; y axis MFI (anti-Human A647); remark: listed apart in the source
[6] = target: T3, VSTM5 monomer; assay: SPR, VSTM5 monomer binding to the IgG
[7] = target: T2, human VSTM5-EGFP (SEQ ID NO:133) …; assay: FACS, IgG1 at 22 nM on 293-huVSTM5 (VSTM5-EGFP) cells; grade from ratio to 293-MT control cells (>2000)
[8] = target: T2, human VSTM5-EGFP (SEQ ID NO:133) …; assay: FACS, IgG1 at 22 nM on 293-huVSTM5 (VSTM5-EGFP) cells; grade from ratio to 293-MT control cells (850-2000)
[9] = target: T2, human VSTM5-EGFP (SEQ ID NO:133) …; assay: FACS, IgG1 at 22 nM on 293-huVSTM5 (VSTM5-EGFP) cells; grade from ratio to 293-MT control cells (50-400)
[10] = target: T2, human VSTM5-EGFP (SEQ ID NO:133) …; assay: FACS, IgG1 at 22 nM on 293-huVSTM5 (VSTM5-EGFP) cells; grade from ratio to 293-MT control cells (<50)

B1: 50-01.F03 (antibody, V domains shown)
VH: EVQLVEIGGGLIQPGRSLRLSCAASGFTFSSYAMHWVRQAPGKGLEWVAVISYDGSKKYYADSVKGRFTISRDNSKNTVHLQMNSLRVEDTAVYYCALLSRPHYGLDVWGQGTTVTVSS
VL: QSVLTQPPSVSAAPGQKVTISCSGSRSNVGGNFLSWYQHVPGTPPQLLIYDNYKRPSEIPDRFSGSKSGTSATLDITGLQTGDEADYYCGTWDSSLSSWVFGGGTQLTVLG
[1]
  binding result: no binding
[2]
  ratio of 293-huVSTM5 cell binding / 293-MT control cell binding (FACS) at 22 nM mAb: 400 to 850 ratio
[3]
  EC50 (read off the curve): ~0.7 nM

B2: 49-01.F01 (antibody, V domains shown)
VH: EVQLVESGGGVVKPGESLRLLCTASGLSFNKYSINWVRQAPGGGLEWVSSIESGSGHIYYADSLEGRFTISRDNAKNSVTLEMNSLRVEDTALYYCVSGPEDKWLLQLYFESWGQGTLVTVSS
VL: EIVLTQSPATLSLSPGERATLSCRTSQSSPSDNLAWYQHKPGQAPRLLIYGGSNRATGIPARFSGSGSGTDFTLTISSLEPEDFAVYYCQQYGSSPLTFGGGTKVDIKR
[1]
  binding result: no binding
[4]
  Kd: 2 nM
[5]
  EC50 (read off the curve): ~1 nM
[6]
  Kd: 2 nM
[7]
  ratio of 293-huVSTM5 cell binding / 293-MT control cell binding (FACS) at 22 nM mAb: > 2000 ratio

B3: 50-01.D01 (antibody, V domains shown)
VH: QVQLVESGGGVVQPGRSRRLSCAASGFAFRNYGMHWVRQAPGKGLEWVAFISQNGGKKYYADSVTGRFTVSRDNSKNTLYLQINSLTTDDTAVFYCARSGSGSWGYSDFPGPFDHWGQGSLVTVSS
VL: EIVLTQSPGTLSLSPGERATLSCRASQNIFISFLAWYQQKPGQAPRLLLYGASNRATGIPDRFSGSGSGTDFTLTISRLEPEDFAVYYCQQYGSSPLTFGGGTKVEIKR
notes: also called 50-01.001
[1]
  binding result: no binding
[2]
  ratio of 293-huVSTM5 cell binding / 293-MT control cell binding (FACS) at 22 nM mAb: 400 to 850 ratio
[5]
  EC50 (read off the curve): ~0.6 nM

B4: 50-01.E02 (antibody, V domains shown)
VH: QVQLVESGGGVVQPGGSLKLSCVASGFTFSAYAMNWVRLVPGKGLEWVSGISGNGYSTFYPDSVQGRFTVSRDNSKNTLFLQIDRLTGGDTAIYYCAKVQTTVITPFQNWGQGTLVTVSS
VL: EIVLTQSPGTLSLSPGERATLSCRASQNIGSNFLAWYQQKPGQAPRLLIYGASTRANGIPDRFSGSKSETDFTLTISRLEPEDFAVYYCQQYDNSPYTFGQGTKLEIKR
[1]
  binding result: no binding
[5]
  EC50 (read off the curve): ~1 nM
[8]
  ratio of 293-huVSTM5 cell binding / 293-MT control cell binding (FACS) at 22 nM mAb: 850 to 2000 ratio

B5: 47-01.D05 (antibody, V domains shown)
VH: QITLKESGPTLVKPTQTLTLTCTFSGFSLSTSGVGVGWIRQPPGKALEWLALIYWDDDKRYSPSLKSRLTITKDTSKNQVVLTMTNMDPVDTATYYCAHSGSVGYALYFDYWGQGTLVTVSS
VL: QAVLTQPPSSSASPGESARLTCTLPSDINVRYYNIYWYQQKPGSPPRYLLYYQSDSHKGRGSGVPSRFSGSKDTSANTGILLISGLQSEDEADYYCMIWASNGSGVLGGGTQLTVLG
[1]
  binding result: no binding
[2]
  ratio of 293-huVSTM5 cell binding / 293-MT control cell binding (FACS) at 22 nM mAb: 400 to 850 ratio
[4]
  Kd: 60.7 nM
[6]
  Kd: 60.7 nM
[3]
  EC50 (read off the curve): ~2 nM

B6: 49-01.F05 (antibody, V domains shown)
VH: QVQLQQWGAGLLKPSETLSLTCAVYGGSFSGYYWSWIRQPPGKGLEWIGEINHSGSTNYNPSLKSRVTISVDTSKNQFSLKLSSVTAADTAVYYCARGWRGGSFMDVWGQGTTVTVSS
VL: QSALTQPRSVSGSPGQSVTISCTGTSSDVGGYNYVSWYQQHPGKAPKLMIYDVIKRPSGVPDRFSGSRSGNTASLTISGLQAEDEADYYCCSYAGTHWVFGGGTKLTVLG
[1]
  binding result: no binding
[4]
  Kd: 190 nM
[6]
  Kd: 190 nM
[7]
  ratio of 293-huVSTM5 cell binding / 293-MT control cell binding (FACS) at 22 nM mAb: > 2000 ratio

B7: 49-02.C11 (antibody, V domains shown)
VH: EVQLVESGGGLVQPGGSLRLSCAASGFTFSSYAMTWVRQAPGKGLEWVSVISGGGGTTYYADSVKGRFTISRDNSKNTLYLQMSSLRAEDTAVYYCAKGYSSGWPYYFDYWGQGTLVTVSS
VL: EIVLTQSPGTLSLSPGERATLSCRASQSGVTNFLAWYQQKPGQAPRLLIYATSSRATGIPDRFSGSASGTDFTLTITRLEPEDFAVYFCQQYASSPLTFGGGTKVEIKR
notes: also called 49-02.011
[1]
  binding result: no binding
[8]
  ratio of 293-huVSTM5 cell binding / 293-MT control cell binding (FACS) at 22 nM mAb: 850 to 2000 ratio

B8: 50-01.A04 (antibody, V domains shown)
VH: QVQLVQSGAEVKKPGESLKISCKGSGYDFNNYWIGWVRQTPEKGLEWMGIVYPGDHPGDYHIRYGPSFQGQVTISADRSITTAYLQWRNLKASDTAMYYCARLGSSKDLDYWGQGTLVTVSS
VL: EIVLTQSPATLSLSPGERATLSCRASQSVSGHLDWYQQKPGQSPRLLIYDASNRATGIPARFSGSGSGTDFSLTISSLEPEDFAVYYCQHRSNWPWTFGQGTKVEIKR
[1]
  binding result: no binding
[9]
  ratio of 293-huVSTM5 cell binding / 293-MT control cell binding (FACS) at 22 nM mAb: 50 to 400 ratio
[4]
  Kd: 52.8 nM
[6]
  Kd: 52.8 nM

B9: 52-01.A07 (antibody, V domains shown)
VH: EVQLVESGGGLVQPGRSLRLSCAASGFTFSSYAMHWVRQAPGKGLEWVAVISYDGSNKYYADSVKGRFTISRDNSKNTLYLQMNSLRAEDTAVYYCASKRELHSFDYWGQGTLVTVSS
VL: DVVMTQSPLSLPVTPGEPASISCRSSQSLLQSNGHNYLNWYLQKPGQSPQVLIYLASNRASGVPDRFSGSGSGTDFTLKISRVEAEDVGIYYCMQGLQIPLTFGGGTKVEIKR
[1]
  binding result: no binding
[10]
  ratio of 293-huVSTM5 cell binding / 293-MT control cell binding (FACS) at 22 nM mAb: < 50 ratio

B10: 49-01.D06 (antibody, V domains shown)
VH: QVQLVQSGAEVKKPGTSVKVSCKASGYTFTTYTMHWVRQAPGQRLEWMGWINTGNGNTKYSQKFQDRVTITRDTSASTAYMELSSLKFEDTAVYYCAREGVTIFGDHSYYYGMDVWGQGTTVTVSS
VL: QPVLTQSSSASASLGSSVKLTCTLSSGHSSYIIAWHQQQPGKAPRYLMKLEGSGSYNKGSGLPDRFSGSSSGADRYLTISNLQSEDEADYYCETWDGNTWVFGGGTQLTVLG
[1]
  binding result: no binding
[7]
  ratio of 293-huVSTM5 cell binding / 293-MT control cell binding (FACS) at 22 nM mAb: > 2000 ratio
